This data set concerns the molecule itself. In words: SEC-MALS; Superdex 200 10/300, 20 mM Tris-HCl pH 8.0, 150 mM NaCl, 0.4 mL/min, 25°C; BSA as the reference. A general note: Size exclusion chromatography separates by hydrodynamic size, large species first.

Broadly, the stoichiometry N is the number of molecules, sites or subunits per partner or assembly.

B1: full-length mouse IRG1 (immune responsive gene 1) (enzyme, Mus musculus (mouse), UniProt P54987 1-488, looked up)
chain: MMLKSVTESFAGMIHGLKVNHLTDGIIRRSKRMILDSLGVGFLGTGTEVFHKVTQYSKIYSSNTSSTVWGRPDFRLPPTYAAFVNGVAVHSMDFDDTWHPATHPSGAVLPVLTALSEALPQIPKFSGLDLLLAFNVGIEVQGRLMHFSKEAKDIPKRFHPPSVVGTLGSAAAASKFLGLSLTKCREALAIAVSHAGAPIANAATQTKPLHIGNAAKHGMEATFLAMLGLQGNKQILDLGSGFGAFYANYSPEDLPSLDSHIWLLDQQDVAFKSFPAHLATHWVADAAAAVRKHLVTPERALFPADHIERIVLRIPDVQYVNRPFPDSEHEARHSFQYVACASLLDGSITVPSFHSQQVNRPQVRELLKKVKLEHPPDNPPSFDTLYCEISITLKDGTTFTERSDTFYGHWRKPLSQEDLRNKFRANASKMLCRDTVESLITVVEKLEDLEDCSVLTRLLKGPSVQDEASKLSSMSSFDHTTLPRFTNI
notes: immune responsive gene 1 (IRG1, cis-aconitate decarboxylase), Mus musculus, NCBI NP_032418.1, full length, residues 1 to 488, cloned into pET21a (NdeI/XhoI); In the crystal, molecule A was modelled from residues 5 to 463 and molecule B from residues 4 to 460; the rest was not traceable; also called cis-aconitate decarboxylase; CAD; source: E. coli BL21 (DE3), purified (Ni-NTA, SEC); not shown: …
Regarding B1, the “stoichiometry N” value came out at 2.

Source of the values: article PMC7707506, “The crystal structure of mouse IRG1 suggests that cis-aconitate decarboxylase has an open and closed conformation” (PLoS ONE, 2020).
